Molecular target: VEGF mitogenic receptors
Test: cell-based or functional assay

- half-maximal activity, HUVEC mitogenesis ([3H]thymidine incorporation): 17 to 19 ng/mL
Substance: purified human VEGF165 (R&D Systems, expressed in Sf21 cells) (from UniProt P15692 27-191) (ligand)
